The values that follow come from publication PMC12277278 (Frontiers in Immunology, 2025).

The assay has as its target T1, recombinant DbpA from B. burgdorferi strain 297 (DbpA297) (Borrelia burgdorferi strain 297, UniProt O50917).
T1 construct: also called recombinant DbpA297
In words: multiplex microsphere immunoassay (MIA, Luminex); recombinant antigens coupled to MagPlex-C microspheres; diluted MAb incubated 1 h at RT; PE-labelled secondary antibody; MFI read on a FlexMap 3D. Particulars: both partners purified.

T1 sequence (O50917 30-168): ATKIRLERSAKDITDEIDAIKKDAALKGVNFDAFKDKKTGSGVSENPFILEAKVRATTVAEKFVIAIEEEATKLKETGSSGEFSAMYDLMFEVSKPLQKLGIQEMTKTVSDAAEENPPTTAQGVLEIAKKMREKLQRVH

B1: F945 IgG (recombinant human monoclonal antibody, IgG1/kappa) (antibody, V domains shown)
VH: QVQLVESGGGVVQPGRSLRLSCAASGFSFNTYAFHWVRQGPGKGLEWVAGISFDGSKRYYADSVKGRFTVSRDNSKNTLYLQMNGLIPEDTAVYYCARDRRIVVVSAPGYWGQGTLVTVSS
VL: DIQMTQSPSSLSASVGDRVTITCQASHDISNYLNWYQQKPGKAPKLLIFDASYLETGVPSRFSGSGSGTDFTFTINSLQSEDIATYYCQQYDTLLSFGGGTRVEIK
B1: the binding result is given as “no binding”.
